Reference: patent publication CN111320694A

Target: GPC3蛋白 (Glypican 3 protein, recombinant) (UniProt P51654)
Test: sandwich ELISA: GPC3 polyclonal antibody coated, GPC3 protein titrated, 0.2μg/mL GN2-Luc as detector, luminescence

UniProt P51654, sequence (P51654 25-559 limits assumed): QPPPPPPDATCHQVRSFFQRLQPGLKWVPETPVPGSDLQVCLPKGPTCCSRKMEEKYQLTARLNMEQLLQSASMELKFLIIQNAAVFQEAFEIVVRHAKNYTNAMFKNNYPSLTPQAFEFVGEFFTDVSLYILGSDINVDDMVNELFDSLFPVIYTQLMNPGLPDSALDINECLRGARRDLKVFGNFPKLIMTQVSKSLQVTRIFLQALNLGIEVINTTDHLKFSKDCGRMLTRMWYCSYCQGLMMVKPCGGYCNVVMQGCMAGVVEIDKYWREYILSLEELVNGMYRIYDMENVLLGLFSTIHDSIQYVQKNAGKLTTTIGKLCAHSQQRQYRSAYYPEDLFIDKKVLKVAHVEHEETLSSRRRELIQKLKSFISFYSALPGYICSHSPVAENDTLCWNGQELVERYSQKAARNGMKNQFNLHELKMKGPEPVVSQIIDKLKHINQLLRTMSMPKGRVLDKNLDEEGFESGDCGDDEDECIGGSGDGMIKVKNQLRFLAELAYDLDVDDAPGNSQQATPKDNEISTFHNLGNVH

B1: 融合蛋白GN2-Luc (GN2-Nano-luciferase fusion protein) (protein, part only; not given: junction and purification tag, not shown: small tags and cut ends)
chain, part: QVQLVESGGGLVQPGGSLRLSCAASGFTLDAYAIGWFRQAPGKEREGVSYITSGTGTTLYADSVKGRFTISRDNAKNTVYLQMNSLKPEDTAVYFCTTLKRTTAGGWPIPGRIGGQGTQVTVSS
EC20 (GPC3 concentration at 20% of the strongest luminescence): 0.0539 µg/mL | EC80 (GPC3 concentration at 80% of the strongest luminescence): 0.219 µg/mL
